In patent publication US9486502B2, “Methods of administering interferon gamma to absorb fluid from the subretinal space” (The United States of America, as represented by the …, priority 2008, dated 2016):
Entries after “also recorded” stand apart in the source; their conditions may differ.

Experiments:
hfCHC cells = experiment: BrdU incorporation assay, human fetal choroidal cell proliferation; assay type: cell-based
hfRPE cells = experiment: immunoblotting of JAK-STAT / MAP kinase signalling proteins in hfRPE; assay type: cell-based, human
Experimental: Immunoblotting was performed as previously described in Li, R. et al., 2007, Invest Ophthalmol Vis Sci, 48, 5722-5732, incorporated by reference in its entirety herein. Primary cultures of hfRPE and native human adult RPE cells were lysed using RIPA buffer (Sigma-Aldrich) supplemented with proteinase inhibitor cocktail (Roche). Total protein in the supernatant was measured (BCA™ protein assay, Pierce Biotechnology) and 20 µg of protein from cell lysate supernatants was electrophoresed on a 4-12% gradient Bis-Tris NuPAGE gel (Invitrogen) under reduced or non-reduced conditions. Resolved proteins were transferred to nitrocellulose membranes (membranes and XCell II™ Blot Module, Invitrogen).
The membranes were incubated with mouse anti-human IFNγ R1 monoclonal antibody (R&D Systems), anti-human IFNγ R2 (Santa Cruz Biotechnology), anti-human IFNAR1, anti-human IFNAR2 (Abcam), anti-IRF1, anti-IRF2, anti-IRF8 (Santa Cruz Biotechnology) or anti-CFTR antibody 217 (Cystic Fibrosis Foundation Therapeutics Inc., Bethesda, Md.), after blocking non-specific binding ((StartingBlock™ T20 (TBS), Pierce Biotechnology). Membranes were then incubated with horseradish peroxidase (HRP) conjugated secondary antibody (Pierce Biotechnology) and visualized using Supersignal® West Dura Extended Duration Substrate (Pierce Biotechnology) and imaged using an Autochemie™ system (UVP, Upland, Calif.). The antibody-specific bands for IRF-1, IRF-2, ICSBP (IRF-8) and GAPDH were around 91 kDa, […], respectively.
For phosphorylation studies, cells were starved for 24 hours in serum-free medium (“SFM,” MEM-α modification medium containing non-essential amino acids and Glutamine-Penicillin-Streptomycin). Cells were treated with IFNγ (5-50 ng/ml) in SFM at various time points at 37° C. and lysed with RIPA buffer supplemented with proteinase inhibitor cocktail (Roche) and Halt™ phosphatase inhibitor cocktail (Pierce Biotechnology). 40 μg of protein was electrophoresed. As in the immunoblotting experiments described above, except that the membranes were incubated with anti-phospho-p38 MAP kinase (Thr180/Tyr182), anti-p38 MAP kinase, anti-phospho-Stat1 (Tyr701), anti-phospho-Stat1 (Ser727) or anti-Stat1 antibodies, respectively (each from Cell signaling Technology, Danvers, Mass.). The antibody-specific bands for STAT1/phospho-STAT1 (Tyr701) were around 84 kDa. GAPDH was blotted together with anti-GAPDH antibody (Abcam) and used as loading control. Cyclohexamide (“CHX”; Sigma-Aldrich), a protein synthesis inhibitor, was used at 62 μM.
For CFTR immunoblotting analysis, confluent monolayers of hfRPE were homogenized on ice in isolation solution (250 mM Sucrose, 10 mM Tris-HCl, 10 mM MgCl2, 1 mM CaCl2, pH 7.4) supplemented with Halt™ protease inhibitor cocktail, EDTA-free. Nuclei and intact cells were removed with centrifugation (900×g for 10 minutes at 4° C., followed by centrifugation at 10,000×g for 5 minutes). Crude plasma membrane proteins were collected after centrifugation at 100,000×g for 1 hour at 4° C.

[1] = Phase I study of topical interferon gamma-1b in CME secondary to uveitis (OCT macular thickness); assay type: in vivo, human; settings: based on therapeutic treatment of topical IFNα
Text: To test whether cystoid macular edema (CME), secondary to uveitis, is caused by the disequilibrium of the Jak/Stat and mTor signal transduction pathways in the retinal pigment epithelium (RPE), interferon gamma-1β topically applied in human patients. Five participants with CME secondary to uveitis receive a topical ocular instillation of interferon gamma-1b in a Phase I, non-randomized, prospective, uncontrolled, dose-escalation, single-center study. The study involves a one-time instillation or series of instillations of interferon gamma-1b on the cornea and measurement of a response with optical coherence tomography (OCT) over a three hour period.
A 25% decrease in macular thickness is observed at a post-instillation as compared to baseline. In the study, the first two participants receive one instillation (each instillation contains […] in 0.05 mL solution) on the cornea at time zero, the next two participants receive two instillations, 10 minutes apart, for a total dosage of 20 μg, and the final participant receives three instillations, 10 minutes apart, for a total of 30 μg. OCT will be obtained at −60 minutes, −30 minutes and just before the instillation(s). […]
Participants with CME secondary to uveitis are treated with ocular instillation(s) of interferon gamma-1b. […] The effect on the retinal thickness is measured using OCT measurements as indicated below. […]

B1: IFNγ: pleiotropic cytokine produced by T- and NK-cells; obtained from Peprotech (protein, UniProt P01579 24-161, looked up)
Interferon gamma: QDPYVKEAENLKKYFNAGHSDVADNGTLFLGILKNWKEESDRKIMQSQIVSFYFKLFKNFKDDQSIQKSVETIKEDMNVKFFNSNKKKRDDFEKLTNYSVTDLNVQRKAIHELIQVMAELSPAAKTGKRKRSQMLFRG
hfCHC cells
  effect on hfCHC (human fetal choroidal) cell proliferation: stimulatory effect
hfRPE cells; IFNγ 5 ng/ml, 15 minutes
  STAT1 tyrosine phosphorylation: tyrosine phosphorylated
hfRPE cells; IFNγ 4 hours
  IRF-1 protein: activated; also recorded: significantly increased
  IRF-2 protein: unaffected; also recorded: no effect
hfRPE cells; IFNγ-treated hfRPE
  IRF-8 (ICSBP) protein: below the detection limit; also recorded: no detectable change
hfRPE cells; IFNγ-treated hfRPE, not statistically significant
  effect on CFTR protein level: small decrease
hfRPE cells; after IFNγ treatment
  STAT1 protein signal: significantly increased; also recorded: significantly up-regulated
hfRPE cells; all six time points tested
  effect on JNK or P44/P42 phosphorylation: no effect
hfRPE cells; hfRPE
  period over which IFNγ-induced phosphorylation of STAT1 was observed: 2 to 48 h
hfRPE cells; hfRPE, serum starved 24 hours
  time to IFNγ-induced phosphorylation of P38 MAPK: 2 to 5 min
[1]
  tolerability of topically applied IFNγ: well-tolerated
